Reference: the Human Domainome abundance scans (Beltran et al. 2025)
± gives the uncertainty stated by the source.

B1: Triacylglycerol hydrolase DDHD2, residues 389 to 447; numbered along this chain, O94830 (parent)
chain: TLEEDLKKLQLSEFFDIFEKEKVDKEALALCTDRDLQEIGIPLGPRKKILNYFSTRKNS

Variants of: B1
Experiment: abundance fitness (aPCA) (normalised: wild type 0, dead -1); higher = more abundant; growth selection in yeast, the domain comes from the species named
Details: Homo sapiens

In order of rising abundance fitness:
1. TLEEDLKKLQLSWFFDIFEKEKVDKEALALCTDRDLQEIGIPLGPRKKILNYFSTRKNS [E13W]  -1.45 ± 0.27
2. TLEEDLKKLQGSEFFDIFEKEKVDKEALALCTDRDLQEIGIPLGPRKKILNYFSTRKNS [L11G]  -1.22 ± 0.095
3. TLEEDLKKLPLSEFFDIFEKEKVDKEALALCTDRDLQEIGIPLGPRKKILNYFSTRKNS [Q10P]  -0.863 ± 0.093
4. TLEEDLKKLILSEFFDIFEKEKVDKEALALCTDRDLQEIGIPLGPRKKILNYFSTRKNS [Q10I]  -0.852 ± 0.34
5. TLEEDLKKLQLSEFFDIFEKEKVDKEALALCTDRDLQEIGIPLGPYKKILNYFSTRKNS [R46Y]  -0.848 ± 0.17
6. TLEEDLKKLQLSLFFDIFEKEKVDKEALALCTDRDLQEIGIPLGPRKKILNYFSTRKNS [E13L]  -0.608 ± 0.11
7. TLEEDLKKLQLSEEFDIFEKEKVDKEALALCTDRDLQEIGIPLGPRKKILNYFSTRKNS [F14E]  -0.592 ± 0.11
8. TLEEDLKKLQLSEFFDIFEKEKVDKEALALCPDRDLQEIGIPLGPRKKILNYFSTRKNS [T32P]  -0.589 ± 0.11
9. TLEEDLKKLQLSEYFDIFEKEKVDKEALALCTDRDLQEIGIPLGPRKKILNYFSTRKNS [F14Y]  -0.506 ± 0.28
10. TLEEDLKKLQLSEFFDIFEKEKVDKEALALCTDRDLQEIHIPLGPRKKILNYFSTRKNS [G40H]  -0.502 ± 0.19
11. TLEEDLKKLQLSEFFDIFEKEKVDKEALALCTDRDLQFIGIPLGPRKKILNYFSTRKNS [E38F]  -0.468 ± 0.093
12. TLEEDLKKLQLSEFFDIFEKEKVDKEALALCTDRDLQEIGIPLGPRKKILNCFSTRKNS [Y52C]  -0.459 ± 0.13
13. TLEEDLKKLQLSEFFDIFEKEKGDKEALALCTDRDLQEIGIPLGPRKKILNYFSTRKNS [V23G]  -0.426 ± 0.074
14. TLEEDLKKLQLSEFFDIFEKEKVDKEALALCTDRDLQECGIPLGPRKKILNYFSTRKNS [I39C]  -0.411 ± 0.12
15. TLEEDLKKLQLSEFFDIFEKEKVDKEALALCTDRDLQEIGIPLGPRKKIPNYFSTRKNS [L50P]  -0.401 ± 0.11
16. TLEEDLKKLQLSEFFDIFEKEKVDKEAIALCTDRDLQEIGIPLGPRKKILNYFSTRKNS [L28I]  -0.368 ± 0.11
17. TLHEDLKKLQLSEFFDIFEKEKVDKEALALCTDRDLQEIGIPLGPRKKILNYFSTRKNS [E3H]  -0.358 ± 0.11
18. TLEEDLKKLQLSEFFDIFEKEKVDKEALALCTDRDLQEIGIPLGPKKKILNYFSTRKNS [R46K]  -0.338 ± 0.14
19. TLEEDLKKLQLSEFFDIFEKEKVDKEALALCTDRDLREIGIPLGPRKKILNYFSTRKNS [Q37R]  -0.302 ± 0.073
20. TLEEDLKKLQLSEFFDIFEKEKVDKEALALCTDRDLQEIGIPLGPRKKIGNYFSTRKNS [L50G]  -0.291 ± 0.061
21. TLEEDLKKLQLSECFDIFEKEKVDKEALALCTDRDLQEIGIPLGPRKKILNYFSTRKNS [F14C]  -0.28 ± 0.11
22. TLEEDLKKLQLSEFFDIFEKEKVDKEALALCTDPDLQEIGIPLGPRKKILNYFSTRKNS [R34P]  -0.266 ± 0.1
23. TLEEDLKKLRLSEFFDIFEKEKVDKEALALCTDRDLQEIGIPLGPRKKILNYFSTRKNS [Q10R]  -0.247 ± 0.052
24. TLEEDLKKLTLSEFFDIFEKEKVDKEALALCTDRDLQEIGIPLGPRKKILNYFSTRKNS [Q10T]  -0.241 ± 0.08
25. TLREDLKKLQLSEFFDIFEKEKVDKEALALCTDRDLQEIGIPLGPRKKILNYFSTRKNS [E3R]  -0.239 ± 0.049
26. TLEEDLKKLQLSEFFDIFEKEKVDKEALALCTDRDLQEIGIPLGPRKKILNYFHTRKNS [S54H]  -0.208 ± 0.14
27. TLEEDLKKLQLSEFFDIFEKEKVDKEALALCTDRDLQEIGIPLGPRKKILNYFITRKNS [S54I]  -0.146 ± 0.11
28. TLEEDLKKLQLSEFFDIFEKEKVDKEALALCTDRDLQEIGIPLGPRKKILNYFRTRKNS [S54R]  -0.122 ± 0.064
29. TLEEDLKKLQLSEFFDIFEKEKVDKEALALCTDRDLQEIGIPLGPGKKILNYFSTRKNS [R46G]  -0.107 ± 0.055
30. TLEEDLKKLQLSEFFDIFEKEKVDKEALALCTDRDLQEIGIPLGPRKKILNYFSTRANS [K57A]  -0.102 ± 0.069
31. TLEEDLKKLQLSEFFDIFEKEKVDKEALALCTDRDLQEIGIPLGPRKKILNYFTTRKNS [S54T]  -0.097 ± 0.078
32. TLEEDLKKLQLSEFFDIFEKEKVDKEALALCTDRDLQEIGIPLGPRKKILNWFSTRKNS [Y52W]  -0.089 ± 0.075
33. TLEEDLKKLQLSEFFDIFEKEKVDKEALALCTDRDLQEIGIPLGPRKKILNYFSTRINS [K57I]  -0.075 ± 0.14
34. TLEEDLKKLQLSEFFDIFEKEKVDKEALALCTDRDLQEIGIPLGPRKKILNYFSLRKNS [T55L]  -0.072 ± 0.073
35. TLEEDLKKLQLSEFFDIFEKEKVDKEALALCTDRDLQEIGIPLGPRKKILNYFSTRKNH [S59H]  -0.056 ± 0.17
36. TLEEDLKKLQLSEFFDIFEKEKVDPEALALCTDRDLQEIGIPLGPRKKILNYFSTRKNS [K25P]  -0.048 ± 0.11
37. TLEEDLKKLQLSAFFDIFEKEKVDKEALALCTDRDLQEIGIPLGPRKKILNYFSTRKNS [E13A]  -0.036 ± 0.089
38. TLEEDLKKLQLSEFFDIFEKEKVDKDALALCTDRDLQEIGIPLGPRKKILNYFSTRKNS [E26D]  0.002 ± 0.12
39. TLEELLKKLQLSEFFDIFEKEKVDKEALALCTDRDLQEIGIPLGPRKKILNYFSTRKNS [D5L]  0.021 ± 0.052
40. TLEEDLKKLQLSEFFDIFEKEKVDKEALTLCTDRDLQEIGIPLGPRKKILNYFSTRKNS [A29T]  0.032 ± 0.089
41. TLEEDLKKLQLSEFFDIFEKEKVDKEALALCTDRDLQEIGIPLGPRKKILNYFSARKNS [T55A]  0.058 ± 0.067
42. TLEEDLKKLQLSEFFDIFEKEKVDKEELALCTDRDLQEIGIPLGPRKKILNYFSTRKNS [A27E]  0.231 ± 0.083
43. TLEEDLKKLQLSEFFDIFEKEKFDKEALALCTDRDLQEIGIPLGPRKKILNYFSTRKNS [V23F]  0.437 ± 0.11
44. TLEEDLKKLQLSEFFDIFEKEKYDKEALALCTDRDLQEIGIPLGPRKKILNYFSTRKNS [V23Y]  0.451 ± 0.12
45. TLEEDLKKLQLSEFFDIFEKEKVDKEWLALCTDRDLQEIGIPLGPRKKILNYFSTRKNS [A27W]  0.841 ± 0.077
